The text below walks through data of PMC4498406.

In this test the target is [Lys]plasminogen (human). Kind of test: kinetics of conformational plasminogen activation.

One may read the Kd as the equilibrium constant for the complex coming apart. For “streptokinase ALAB49 SK2b variant with Tyr4 substituted by Pro (natural protein)”, the equilibrium dissociation constant (Kd) amounted to 600 nM.
